The text below walks through data of the supplement of paper PMC12042874.

± gives the uncertainty stated by the source.

The series is described as follows: amyloid nucleation score (Sup35N fusion, yeast selection) (log enrichment); library NNK1; higher = more nucleation; inactive = no reads after selection. The method in brief: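 Three technical output replicates were used for random libraries. Psi-negative yeast expressing peptides of 20 random codons fused to Sup35N were induced with 100 μM copper sulfate for 24 hours and grown 7 days at 30°C on medium lacking adenine and uracil, and input and output plasmid inserts were Illumina-sequenced, excluding sequences with under 100 input reads. The nucleation score is the DiMSum log enrichment of output over input reads, centred on the mode score of non-aggregating sequences.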
Substance FIWGLKLVDFSLPVSAL had an amyloid nucleation score of -0.411 ± 0.51. YVVCRTFSVPAYSLRLQLRR yielded an amyloid nucleation score of 0.353 ± 0.26. The result for CRDRRS reads 1.91 ± 0.35. The result for NVRDLSMISLGAEVWGRIAV reads 0.619 ± 0.81; that for IYQLDVLGFDFN, “inactive”.

In the case of YTANYGILVFAVC, the amyloid nucleation score was -0.702 ± 1.4. Turning to LYFVSSAFSSQS, the amyloid nucleation score turned out to be 0.014 ± 0.27. In turn, IKMDFTFICIRVRGV returned an amyloid nucleation score of 0.343 ± 1.4. The result for YSRSGRTTNLAPNLHLRTMS reads 0.136 ± 1.2; that for VTMVRYCALIQSYGGDGELV, 0.26 ± 0.45. The result for IDGLNNYTSYNGTR reads -0.219 ± 0.62; that for YEYQEKFSFYIEVLGKDSLS, -0.864 ± 0.41; that for FRRVVNVSCTLTHSWIILLM, 0.042 ± 1.1. The result for SGHTVVMVMNMCCVSFHLRC reads 6.562 ± 0.048; that for VLGDSARVCSGDGV, 0.494 ± 0.74. Substance DACIGWVRYRSILCCMVLVA had an amyloid nucleation score of -0.005 ± 1.7. Substance IKYINDITFLVLPYWFI gave an amyloid nucleation score of 3.6 ± 0.072. The result for SWCFN reads 1.34 ± 0.59; that for MLTECSRFLNVFGVGEHEVN, -0.162 ± 0.58. The result for EIIFVRLGANEHWSHNVYVS reads -0.746 ± 1.2; that for GMYRSVCDKVYRGCTIEVVV, 1.55 ± 0.54. The result for FLLCVSHLELSY reads 0.968 ± 0.49; that for IMYSQNEGDMYESSFV, -0.551 ± 0.35.

Regarding SGMVLNNQSS, the amyloid nucleation score is -0.763 ± 0.79.

RVMLKSDRFYYVLKTCAY displayed an amyloid nucleation score of 1 ± 0.37. The result for SNSFRLGGSNNYPMSSAPGL reads -1.74 ± 2.4. The result for HALRSTLYMGSSVFLNAMDS reads 0.053 ± 1.1; that for YGVNLPALLFKYAISGSLVG, 1.03 ± 0.53. The result for LWGIMYTM reads -0.026 ± 0.93; that for VHRIYKCALRVSRADSLIVT, “inactive”.

LLIVYYNVDITQCRWFTELC registered an amyloid nucleation score of -0.16 ± 0.58.

In the case of LHTAETGRLHNAYVILVVYC, the amyloid nucleation score result is “inactive”.

HWTMYLVQLDSDSAIFFGHM had an amyloid nucleation score of 2.52 ± 0.15.

QCMARVSQFFWFMLTWK: the amyloid nucleation score was 0.748 ± 0.27. The result for FPLGSFIDLQRDMGIN reads 0.53 ± 0.4; that for PPHIRKAGMRTFMGGLGLRG, 0.619 ± 0.67; that for YVLKCKNILMYEYLNEVKIS, 0.219 ± 0.27.

On to GYTTLTQGL, for which the amyloid nucleation score was -0.513 ± 1.2. The result for CQYMFHIWQLIANHVI reads 0.799 ± 0.43; that for MVMNTKCE, -0.643 ± 0.55; that for RYSWSYEKKWIDNLQLVLR, -0.609 ± 0.22. The result for GLMLDLFVSSVYSIT reads 0.655 ± 0.42; that for PNYEVDCDMFYSSFVGGFRV, 0.173 ± 1.4. The result for GVLYSDTLT reads 1.5 ± 0.14. As to ANLLINGFLSRSRDNYACYR, the amyloid nucleation score came to 1.56 ± 0.18. The result for AYWGHITGKVKFMEAAPLDV reads 1.63 ± 0.73; that for LRKPKIYVTNRPTQGYGSTA, 0.169 ± 0.55; that for TLSSRSYC, 0.402 ± 0.33. Take VLMMLNGTDVKWMESANELS: the amyloid nucleation score came out at 0.49 ± 0.41.

For MSRIEGHRLDVLSRHFR, the amyloid nucleation score was -0.046 ± 0.32. The result for YLCDSSLGVVYSFLHCRMVD reads -0.369 ± 0.67. The result for SMAFGCWSVGWYRGMMSVCQ reads 1.16 ± 0.6; that for SLIGYVIKW, -0.095 ± 0.63.

CFNMYLDVFDRVCRM yielded an amyloid nucleation score of 1.85 ± 0.13.

For FRWYRLRIIKSFSGNSASVR, the amyloid nucleation score amounted to 3.1 ± 0.074. The result for FICVMTRSGQDSSGMLLREG reads 0.105 ± 0.2; that for YNTSGNTRS, -0.269 ± 0.64; that for FIATNLSLYGFVYWLLSTTT, 0.414 ± 0.42. The result for YVMAVI reads 1.64 ± 0.5. The result for GYDRSGT reads 0.135 ± 1.2.

As to CYSAVPIYDFKYRPAGYYIS, the amyloid nucleation score result was “inactive”. Take ANALDCINDWDKSSQSCQGP: the amyloid nucleation score is 0.812 ± 0.53. Regarding EIWPFMPRDHPMNALIYVSR, the amyloid nucleation score was determined as 1.34 ± 0.39.

As to YSFLNYLLTRFDIIFLAAED, the amyloid nucleation score result was “inactive”. Substance LLTTIGQTRMVIHKGIERNE came in with an amyloid nucleation score of 1.77 ± 0.14.

Turning to SYLHMFTMFV, the amyloid nucleation score is -0.654 ± 0.52. For MMSSFDVWDS, the amyloid nucleation score was -0.077 ± 0.73. The result for FLHNSWTGGGGTYGICKMRV reads -0.368 ± 0.65. The result for ELTCWSGDGGVGGILVNVWT reads 0.565 ± 0.47; that for RFIWFLVYVNTCYARC, 2.86 ± 0.25; that for NWRQEYVFAY, -1.37 ± 2.4. The result for HWSMCRTGFWSLYKMDVTQT reads 0.833 ± 0.7; that for CRTVAHFRP, 0.481 ± 0.61; that for PCKSCGLKFTRW, 0.235 ± 0.39. In turn, VIASELSSCFSLRHNVVTTS had an amyloid nucleation score of -0.469 ± 1.2.

For the substance CVFYASTYVIPYNCENNFTI, the amyloid nucleation score was 0.952 ± 0.26. The result for WVVCVIDEGSSTFFINI reads -0.556 ± 1.4; that for QNIGGFMARFIIFILLYDHW, 0.714 ± 0.84. Substance DTKIDACIRNSLHGWSRMAR yielded an amyloid nucleation score of 0.181 ± 0.38. The result for SFSLSLVFRISPDGLGHFLQ reads 0.412 ± 0.3; that for WGLNWSNSNN, “inactive”. The result for GSNTFI reads 0.243 ± 0.31; that for EGITHVFIRDGVGSYLKAET, 1.33 ± 0.58; that for ITMFNLYQCSL, 5.78 ± 0.065. The result for RLNWVYSRNNASLSGVYMKR reads 0.116 ± 0.24; that for RVFLMCCVGEMLRMLQLSSD, 6.46 ± 0.073; that for TLMNHGRESLGWFD, -0.828 ± 0.66. The substance GLWYHA yielded an amyloid nucleation score of 0.025 ± 0.62.

In turn, LDMKSFEQLVKQLPCTWADD registered an amyloid nucleation score of 0.222 ± 0.41. KDISITCLLYPKNHSGYSGT: the amyloid nucleation score is 0.058 ± 0.25. The result for STLPMHRNMTLRRLSCVQSY reads -0.069 ± 0.34; that for YNVGLLGLFRCYAQKVGLWE, “inactive”; that for SDSLFPTPLDFKMKIWGIMV, 0.062 ± 0.85. The substance SNSRGYSWRDTGTNLRGYPE came in with an amyloid nucleation score of -0.238 ± 1.5. GTMVSLKTGFKDTSRLLNWS displayed an amyloid nucleation score of -0.748 ± 0.41.

Take CVPPRVRCRFEL: the amyloid nucleation score was 0.792 ± 0.46. The result for AGFQFSIDYR reads 0.259 ± 0.51; that for AISTCQKRVYFWVQSGFVT, -0.072 ± 0.2; that for IVETLCRYCVPRVMVTFVGQ, “inactive”. The result for CVMYSRGFYCADCVCNLMPC reads 4.85 ± 0.053. IWLSQYDHGNCVTYSQANYM returned an amyloid nucleation score of 0.412 ± 0.85. The result for RVYRYLPYRYERCLDL reads -0.504 ± 0.93.

HSRYWSNIHSRWLTGRVRWG gave an amyloid nucleation score of -0.28 ± 0.51. The result for TPLFRGFIMLQPRLRCDKFA reads 0.013 ± 0.31; that for FIFVIDTRVLRTLINCPTPS, -0.047 ± 0.36; that for SSSHDSIVFVRRLPHYCRGF, 0.323 ± 0.43.

Substance FIIKYK came in with an amyloid nucleation score of 2.26 ± 0.19.

Consider SMVAPRPANVRVRLVGRGST, for which the amyloid nucleation score turned out to be 0.354 ± 0.51. The result for MNKQAFNGRM reads “inactive”; that for KVFQQGC, -0.165 ± 1.6.

Turning to SMFCARLDTRVSRTGFPDRG, the amyloid nucleation score was -0.557 ± 0.61. The result for LNTGCDANQILAVCSRGVGV reads 0.793 ± 0.43; that for TSTYWQVDEAV, -0.325 ± 0.52; that for SACFMMGLDDWCDSR, -0.529 ± 0.35. The result for QVTRYYGGNAVR reads 1.59 ± 0.57; that for INYNWCQTRG, -0.867 ± 0.39; that for GDKCLVTYCYLLGDGEGQQS, -0.05 ± 0.43.

Substance WYYDCWIYL registered an amyloid nucleation score of 1.25 ± 0.46.

Substance IRGNSKGMGQREFISPFPAR displayed an amyloid nucleation score of -1 ± 0.35. The result for LGTVRVLEHEVVWHYVLEAR reads 0.485 ± 0.6; that for GTNCHL, -0.036 ± 0.79.

Regarding RYFSWFYVN, the amyloid nucleation score is -0.089 ± 0.93.

Turning to RRRASGHRASY, the amyloid nucleation score is -0.52 ± 0.39.

With AIGCVWVRNRVAIVGERVAK, the amyloid nucleation score worked out at 2.08 ± 0.23. The result for CYSGCYRLCRVIVASCRCRG reads 0.015 ± 0.71. The substance YTRRVTNDVNNFGTFTRMSS yielded an amyloid nucleation score of 1.02 ± 0.27.

LCGISSSCYVVGSLRVIWLS registered an amyloid nucleation score of 0.147 ± 0.65.

For the substance DSDLRLNLCELTFVPWRRSG, the amyloid nucleation score was 2.86 ± 0.19. The result for TAYSNG reads -0.814 ± 0.74. The substance LLPYSLMLRDLGFLKHYLGV came in with an amyloid nucleation score of -0.264 ± 0.61. In the case of GIRQLMAPYKPERWCWQRVG, the amyloid nucleation score stood at 0.344 ± 0.51. The result for SLLDMIYVIDTTTKNCILSK reads 0.983 ± 0.35; that for LFLHVSMVS, -1.31 ± 1.4. The result for MGLGVRVEKSSCACG reads 0.841 ± 0.37; that for CVFYCRR, 0.091 ± 1.1. For ALFCDDEYRRDYW, the amyloid nucleation score is 0.192 ± 0.31. GMALKLFCALT: the amyloid nucleation score was 0.078 ± 0.89. The result for RFVLKYSSFFMFTIRWCVVV reads -0.027 ± 0.44.

As for EQENMCSVRQACIYH, the amyloid nucleation score was found to be 1.57 ± 0.29. The result for RGRDHCYTTDWNGYRVMVPL reads 0.58 ± 0.51; that for YCDNDSYH, 1.42 ± 0.44.
